# Data published in publication PMC9919357.
# B1: Neuropeptide Y receptor type 2 (Y2R-A202C), P49146 (protein)
# chain: MGPIGAEADENQTVEEMKVEQYGPQTTPRGELVPDPEPELIDSTKLIEVQVVLILAYASIILLGVIGNSLVIHVVIKFKSMRTVTNFFIANLAVADLLVNTLALPFTLTYTLMGEWKMGPVLCHLVPYAQGLAVQVSTITLTVIALDRHRAIVYHLESKISKRISFLIIGLAWGISALLASPLAIFREYSLIEIIPDFEIVCCTEKWPGEEKSIYGTVYSLSSLLILYVLPLGIISFSYTRIWSKLKNHVSPGAANDHYHQRRQKTTKMLVAVVVVFAVSWLPLHAFQLAVDIDSQVLDLKEYKLIFTVFHIIAMASTFANPLLYGWMNSNYRKAFLSAFRCEQRLDAIHSEVSVTFKAKKNLEVRKNSGPNDSFTEATNV
# Target: Neuropeptide Y (TAMRA-NPY) (Sus scrofa), P01304
binder,measurement,value
B1,Kd,32 nM
